Laboratory results published in US9988424 (DUKE UNIVERSITY, dated 2018).
Read-outs that look alike come from different tables or passages of the source.

What was measured:
AE.A244 V1V2 Tags [1] = target: AE.A244 V1V2 Tags (HIV-1)
AE.A244 V1V2 Tags [2] = target: AE.A244 V1V2 Tags (HIV-1); assay: SPR, mAb captured on anti-Fc, V1/V2 tags injected
Con 6 120 = target: T1, Con 6 120; assay: ELISA OD405nm, bar chart, antibody concentration not given
T1 construct: also called Con 6 gp120

AE.con gp140CF [3] = assay: ELISA, OD405 at 10 ug/ml
B.040 gp140C [4] = assay: ELISA, OD405 at 10 ug/ml
B.62357 gp140C = target: T2, B.62357 gp140C; assay: ELISA, OD405 at 10 ug/ml
T2 construct: also called B.62357 140C

B.con gp140CF [5] = assay: ELISA, OD405 at 10 ug/ml
C.1086 gp140 = target: T3, C.1086 gp140; assay: ELISA, OD405 at 10 ug/ml
T3 construct: also called C.1086gp140C

Con 6 gp120 [6] = assay: ELISA, OD405 at 10 ug/ml
G.con gp140CF [7] = assay: ELISA, OD405 at 10 ug/ml
D.9009SA V1V2 Tags [8] = target: T4, D.9009SA V1V2 Tags; assay: ELISA, OD405
T4 Env construct: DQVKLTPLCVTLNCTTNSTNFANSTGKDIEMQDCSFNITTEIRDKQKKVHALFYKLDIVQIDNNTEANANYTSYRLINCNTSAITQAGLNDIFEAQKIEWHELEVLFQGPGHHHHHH

gp70 B.CaseA2 V1/V2 = target: T5, gp70 B.CaseA2 V1/V2 (HIV-1 V1V2 on murine leukemia virus gp70); assay: SPR (BIAcore), mAb captured on anti-Fc surface, V1V2 protein injected as analyte, Synagis surface subtracted, global 1:1 Langmuir fit
T5 construct: also called B.gp70CaseA2 V1/V2; gp70 B.CaseAV1V2
T5 chain: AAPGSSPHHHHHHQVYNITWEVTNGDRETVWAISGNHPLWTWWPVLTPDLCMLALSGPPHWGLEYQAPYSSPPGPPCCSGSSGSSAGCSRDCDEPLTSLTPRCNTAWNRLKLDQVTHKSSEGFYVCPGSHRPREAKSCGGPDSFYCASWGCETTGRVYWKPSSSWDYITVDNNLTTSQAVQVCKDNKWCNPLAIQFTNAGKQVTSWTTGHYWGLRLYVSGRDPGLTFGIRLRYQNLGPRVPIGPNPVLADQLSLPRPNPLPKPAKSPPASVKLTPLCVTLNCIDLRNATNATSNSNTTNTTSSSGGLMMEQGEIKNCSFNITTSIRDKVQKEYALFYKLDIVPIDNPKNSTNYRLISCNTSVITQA

A.9004SS V1V2 Tags [9] = target: T6, A.9004SS V1V2 Tags; assay: ELISA, OD405
T6 Env construct: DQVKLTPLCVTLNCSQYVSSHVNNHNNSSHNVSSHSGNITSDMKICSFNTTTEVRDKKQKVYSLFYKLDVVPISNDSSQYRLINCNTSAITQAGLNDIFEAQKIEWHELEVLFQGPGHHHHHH

AE.con gp140CF [10] = target: T7, AE.con gp140CF; assay: ELISA, OD405
T7 construct: also called AE.con.env03 gp140CF

B. 681-7 gp140C [11] = assay: ELISA, OD405
B. 684-6 gp140C = assay: ELISA, OD405
B.040 gp140C [12] = assay: ELISA, OD405
B.62357 140C [13] = target: T8, B.62357 140C; assay: ELISA, OD405
T8 construct: also called B.62357 gp140C

B.63521 gp140C = assay: ELISA, OD405
B.63521_V1V2 Tags = target: T9, B.63521_V1V2 Tags; assay: ELISA, OD405
T9 Env construct: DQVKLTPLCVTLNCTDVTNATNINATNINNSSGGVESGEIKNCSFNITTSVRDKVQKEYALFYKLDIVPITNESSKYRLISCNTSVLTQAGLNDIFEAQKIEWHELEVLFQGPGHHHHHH

B.Case A2 V1/V2 Tags = target: T10, B.Case A2 V1/V2 Tags; assay: ELISA, OD405
T10 Env construct: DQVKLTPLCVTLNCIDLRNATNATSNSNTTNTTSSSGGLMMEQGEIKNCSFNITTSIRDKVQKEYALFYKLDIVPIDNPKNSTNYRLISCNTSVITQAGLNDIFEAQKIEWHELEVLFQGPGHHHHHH

B.con gp140CF [14] = target: T11, B.con gp140CF; assay: ELISA, OD405
T11 construct: also called B.con.env03 gp140CF

Con 6 gp120 [15] = assay: ELISA, OD405
D.9009SA V1V2 Tags [16] = target: T4, D.9009SA V1V2 Tags; assay: ELISA, OD405
G.con gp140CF [17] = target: T12, G.con gp140CF; assay: ELISA, OD405
T12 construct: also called G.con.env03 gp140CF

A.9004SS V1V2 Tags [18] = target: T6, A.9004SS V1V2 Tags; assay: ELISA, OD405
B. 681-7 gp140C [19] = assay: ELISA, OD405; remark: listed apart in the source
B.040 gp140C [20] = assay: ELISA, OD405; remark: listed apart in the source
B.62357 140C [21] = target: T8, B.62357 140C; assay: ELISA, OD405; remark: listed apart in the source
B.con gp140CF [22] = target: T11, B.con gp140CF; assay: ELISA, OD405; remark: listed apart in the source
D.9009SA V1V2 Tags [23] = target: T4, D.9009SA V1V2 Tags; assay: ELISA, OD405

B1: CH59 (antibody, V domains shown)
VH: EVQLVESGGGLVQPGRSLRLSCAASGFTFDDGAMHWVRQAPGKGLEWVSGISWNSNIIAYADSVKGRFTISRDNAKNSLYLEMNSLRVEDTALYYCAKDSPRGELPLNYWGQGTLVTVSS
VL: SYELTQPPSVSVSPGQTARITCSGDALPKNYAYWYQQKSGQAPVLVIYEDSKRPSGIPERFSGSSSGTMATLTISGAQVEDEADYYCYSTDSSGNHRVFGGGTKLTVL
notes: also called mAb CH59
**Q.** B1 was tested. Which Kd (AE.A244 V1V2 Tags [1]) did it give?
**A.** Its Kd is 0.48 nM.

**Q.** What about the koff (AE.A244 V1V2 Tags [1]) of the same binder?
**A.** The koff was 0.00011 s⁻¹.

**Q.** And the kon (AE.A244 V1V2 Tags [1])?
**A.** The kon was 238000 M⁻¹ s⁻¹.

**Q.** What about the Kd (AE.A244 V1V2 Tags [2]) of the same binder?
**A.** Its Kd is 1 nM.

**Q.** Does B1 bind (Con 6 120)?
**A.** Result: no binding (tested: not given)

B2: CH58 reverted unmutated ancestor antibody (antibody, V domains shown)
VH: EVQLVQSGAEVKKPGESLKISCKGSGYSFTSYWIGWVRQMPGKGLEWMGIIYPGDSDTRYSPSFQGQVTISADKSISTAYLQWSSLKASDTAMYYCARLGGRYYYDSSGYYYFDYWGQGTLVTVSS
VL: NFMLTQPHSVSESPGKTVTISCTRSSGSIASNYVQWYQQRPGSSPTTVIYEDNQRPSGVPDRFSGSIDSSSNSASLTISGLKTEDEADYYCQSYDSSSWVFGGGTKLTVL
notes: also called CH58 RUA; CH58_RUA
**Q.** Does B2 bind (AE.con gp140CF [3])?
**A.** Result: no binding (tested: 10 ug/ml)

**Q.** Does B2 bind (B.040 gp140C [4])?
**A.** Result: no binding (tested: 10 ug/ml)

**Q.** Does B2 bind (B.62357 gp140C)?
**A.** Result: no binding (tested: 10 ug/ml)

**Q.** Does B2 bind (B.con gp140CF [5])?
**A.** Result: no binding (tested: 10 ug/ml)

**Q.** Does B2 bind (C.1086 gp140)?
**A.** Result: no binding (tested: 10 ug/ml)

**Q.** Does B2 bind (Con 6 gp120 [6])?
**A.** Result: no binding (tested: 10 ug/ml)

**Q.** Does B2 bind (G.con gp140CF [7])?
**A.** Result: no binding (tested: 10 ug/ml)

B3: 697D (antibody, V domains shown)
VH: QVQLVQSGAEVKKPGSSVKVSCKASGGNFNTYTISWVRQAPGQGLEWMGRIIPIFGIVNPAQKFPGRVTINVDKSTNTAYMELSSLRSEDTAVYYCATSGVGLHFGYFDYWGQGTQVTVSS
VL: QSVLTQPPSVSGAPGQRVTISCTGSSSNIGAHYDVHWYQQLPGTAPKLLIYGNSNRPSGVPDRFSGSKSGTSASLAITGLQAEDEADYYCQSYDSSLSGYVFGTGTKVTVL
notes: also called mAb 697D; V2 conformational mAb 697D
**Q.** Which results are given for B3?
**A.** binding result (D.9009SA V1V2 Tags [8]): no binding (tested: 10 ug/ml); Kd (gp70 B.CaseA2 V1/V2): 36.5 nM; koff (gp70 B.CaseA2 V1/V2): 0.00038 s⁻¹; kon (gp70 B.CaseA2 V1/V2): 10000 M⁻¹ s⁻¹

B4: PG9 reverted unmutated ancestor antibody (antibody, V domains shown)
VH: QVQLVESGGGVVQPGRSLRLSCAASGFTFSSYGMHWVRQAPGKGLEWVAVISYDGSNKYYADSVKGRFTISRDNSKNTLYLQMNSLRAEDTAVYYCAREAGGPDYRNGYNYYDFWSGYYNYYYMDVWGKGTTVTVSS
VL: QSALTQPASVSGSPGQSITISCTGTSSDVGSYNLVSWYQQHPGKAPKLMIYEVSKRPSGVSNRFSGSKSGNTASLTISGLQAEDEADYYCCSLTSTRRWVFGGGTKLTVL
notes: also called PG9 RUA; PG9_RUA
**Q.** Which results are given for B4?
**A.** binding result (A.9004SS V1V2 Tags [9]): no binding (tested: 10 ug/ml); binding result (AE.con gp140CF [10]): no binding (tested: 10 ug/ml); binding result (B. 681-7 gp140C [11]): no binding (tested: 10 ug/ml); binding result (B. 684-6 gp140C): no binding (tested: 10 ug/ml); binding result (B.040 gp140C [12]): no binding (tested: 10 ug/ml); binding result (B.62357 140C [13]): no binding (tested: 10 ug/ml); binding result (B.63521 gp140C): no binding (tested: 10 ug/ml); binding result (B.63521_V1V2 Tags): no binding (tested: 10 ug/ml); binding result (B.Case A2 V1/V2 Tags): no binding (tested: 10 ug/ml); binding result (B.con gp140CF [14]): no binding (tested: 10 ug/ml); binding result (Con 6 gp120 [15]): no binding (tested: 10 ug/ml); binding result (D.9009SA V1V2 Tags [16]): no binding (tested: 10 ug/ml); binding result (G.con gp140CF [17]): no binding (tested: 10 ug/ml)

B5: PG16 (antibody, V domains shown)
VH: QEQLVESGGGVVQPGGSLRLSCLASGFTFHKYGMHWVRQAPGKGLEWVALISDDGMRKYHSDSMWGRVTISRDNSKNTLYLQFSSLKVEDTAMFFCAREAGGPIWHDDVKYYDFNDGYYNYHYMDVWGKGTTVTVSS
VL: QSALTQPASVSGSPGQTITISCNGTSSDVGGFDSVSWYQQSPGKAPKVMVFDVSHRPSGISNRFSGSKSGNTASLTISGLHIEDEGDYFCSSLTDRSHRIFGGGTKVTVL
notes: also called mAb PG16; bnAb PG16
**Q.** Does B5 bind (A.9004SS V1V2 Tags [18])?
**A.** Result: no binding (tested: 10 ug/ml)

**Q.** Does B5 bind (B. 681-7 gp140C [19])?
**A.** Result: no binding (tested: 10 ug/ml)

**Q.** Does B5 bind (B.040 gp140C [20])?
**A.** Result: no binding (tested: 10 ug/ml)

**Q.** Does B5 bind (B.62357 140C [21])?
**A.** Result: no binding (tested: 10 ug/ml)

**Q.** Does B5 bind (B.con gp140CF [22])?
**A.** Result: no binding (tested: 10 ug/ml)

**Q.** Does B5 bind (D.9009SA V1V2 Tags [23])?
**A.** Result: no binding (tested: 10 ug/ml)
